# Patent US20210324054A1
# Where a chain is given by its changes, count along the chain named.
# B1: WT (recombinant anti-dengue virus NS1 7F8 antibody of Example 2) (antibody, mouse IgG1, kappa, V domains shown)
# VH: EVQLQQPGPELVKPGASVKMSCKASGYTVTSYVIHWVRQKPGQGLEWIGYMNAYNDGIKYNEKFIGKAILTSDKSSSTAYMQLSSLTSEDSAVYYCTKEGLFYVMDYWGQGTSVTVSS
# VL: QIVLTQSPAIMSASPGEKVTMTCSATSSISYMHWYQQKSGTSPKRWIYDTSKLASPVPVRFSGSGSGTSYSLTISSMEAEDAATYFCQYWRSDLPTFGAGTKLELKR
# B2: Mutation 2 (antibody, V domains shown)
# VH: B1 VH with V29F, Y32T, A53G, I58L, E62N
# VL: B1 VL with P56A, Y89Q
# B3: Mutation 1 (antibody, V domains shown)
# VH: B1 VH with V29F, Y32T, A53P, I58L
# VL: B1 VL with P56G, Y89Q
# B4: Mutation 1-9 (antibody, V domains shown)
# VH: B1 VH with V29F, Y32T, A53P, I58L, K98R, M105F
# VL: B1 VL with T50S, P56G
# B5: Mutation 1-16 (antibody, V domains shown)
# VH: B1 VH with V29F, Y32S, A53P, I58L, K98R
# VL: B1 VL with I29L, P56G, Y89W
# B6: Mutation 1-11 (antibody, V domains shown)
# VH: B1 VH with V29F, A53P, I58L, M105F
# VL: B1 VL with I29V, T50S, P56G, Y89Q
# B7: Mutation 1-20 (antibody, V domains shown)
# VH: B1 VH with V29F, A53P, I58L, M105F
# VL: B1 VL with T50S, P56G
# B8: Mutation 1-13 (antibody, V domains shown)
# VH: B1 VH with V29F, Y32S, A53P, I58L, K98R, M105F
# VL: B1 VL with I29L, T50S, P56G, Y89W
# B9: Mutation 1-17 (antibody, V domains shown)
# VH: B1 VH with V29F, A53P
# VL: B1 VL with I29V, T50S, P56G, Y89W
# B10: Mutation 1-6 (antibody, V domains shown)
# VH: B1 VH with V29F, Y32T, A53P
# VL: B1 VL with P56G
# B11: Mutation 1-15 (antibody, V domains shown)
# VH: B1 VH with V29F, Y32T, A53P, M105F
# VL: B1 VL with T50S, P56G
# B12: Mutation 1-7 (antibody, V domains shown)
# VH: B1 VH with V29F, Y32S, A53P, I58L, M105F
# VL: B1 VL with I29L, T50S, P56G, Y89W
# B13: Mutation 1-21 (antibody, V domains shown)
# VH: B1 VH with V29F, Y32T, A53P, K98R
# VL: B1 VL with I29L, P56G, Y89W
# B14: Mutation 1-8 (antibody, V domains shown)
# VH: B1 VH with V29F, A53P, K98R
# VL: B1 VL with I29V, P56G, Y89Q
# B15: Mutation 1-5 (antibody, V domains shown)
# VH: B1 VH with V29F, A53P, K98R, M105F
# VL: B1 VL with I29V, T50S, P56G, Y89Q
# B16: Mutation 1-14 (antibody, V domains shown)
# VH: B1 VH with V29F, A53P
# VL: B1 VL with I29V, T50S, P56G, Y89Q
# B17: Mutation 1-18 (antibody, V domains shown)
# VH: B1 VH with V29F, Y32T, A53P, I58L, M105F
# VL: B1 VL with I29L, T50S, P56G
# B18: Mutation 1-22 (antibody, V domains shown)
# VH: B1 VH with V29F, Y32S, A53P, I58L, K98R, M105F
# VL: B1 VL with I29V, T50S, P56G, Y89W
# B19: Mutation 1-10 (antibody, V domains shown)
# VH: B1 VH with V29F, Y32S, A53P
# VL: B1 VL with I29L, P56G, Y89W
# B20: Mutation 1-12 (antibody, V domains shown)
# VH: B1 VH with V29F, Y32T, A53P, K98R
# VL: B1 VL with P56G
# B21: Mutation 1-19 (antibody, V domains shown)
# VH: B1 VH with V29F, Y32S, A53P, K98R
# VL: B1 VL with I29V, P56G, Y89Q
# B22: Mutation 3 (antibody, V domains shown)
# VH: B1 VH with V29L, Y32T, A53K, I58L, E62P
# VL: B1 VL with A25V, P56C, Y89Q, D93Q
# Target: Antigen DN-IV-Ag# (Fapon Biotech Inc.) (dengue virus)
# Experiment: indirect ELISA on coated DN-IV-Ag#, antibody diluted 81 times
row,Binder,OD450 (reference 630 nm) [OD]
1,B1,0.24
2,B2,0.216
3,B3,0.203

# Target: DN-IV quality control recombinant protein (produced by the company) (dengue virus)
# Experiment: BLI, antibody on AMC sensor
Binder,Kd [nM],koff [s⁻¹],kon [M⁻¹ s⁻¹]
B1,3.15,0.000139,44200
B4,0.66,0.000284,430000
B5,3.38,0.000124,36700
B6,0.725,0.0003,414000
B7,3.53,0.000161,45600
B8,3.47,0.000151,43500
B9,2.52,0.000114,45200
B10,0.499,0.000249,499000
B11,3.79,0.00017,44800
B12,0.652,0.00024,368000
B13,0.693,0.000269,388000
B14,4.08,0.000172,42200
B15,0.508,0.000213,419000
B16,2.75,0.00012,43600
B17,0.572,0.000243,425000
B18,0.59,0.000245,415000
B19,2.65,0.000129,48700
B3,2.85,0.000126,44200
B20,2.86,0.000122,42600
B21,2.41,0.000113,46800

# Target: Antigen DN-IV-Ag# (Fapon Biotech Inc.) (dengue virus)
# Experiment: indirect ELISA on coated DN-IV-Ag#, antibody diluted 27 times
row,Binder,OD450 (reference 630 nm) [OD]
1,B1,0.398
2,B2,0.578
3,B3,0.445

# Target: Antigen DN-IV-Ag# (Fapon Biotech Inc.) (dengue virus)
# Experiment: indirect ELISA on coated DN-IV-Ag#, antibody diluted 729 times
row,Binder,OD450 (reference 630 nm) [OD]
1,B1,0.211
2,B2,0.157
3,B3,0.111

# Target: Antigen DN-IV-Ag# (Fapon Biotech Inc.) (dengue virus)
# Experiment: indirect ELISA on coated DN-IV-Ag#, antibody initial
row,Binder,OD450 (reference 630 nm) [OD]
1,B1,1.42
2,B2,1.59
3,B22,0.923
4,B3,1.61

# Target: Antigen DN-IV-Ag# (Fapon Biotech Inc.) (dengue virus)
# Experiment: indirect ELISA on coated DN-IV-Ag#, antibody diluted 3 times
row,Binder,OD450 (reference 630 nm) [OD]
1,B1,1.18
2,B2,1.48
3,B22,0.347
4,B3,1.39

# Target: Antigen DN-IV-Ag# (Fapon Biotech Inc.) (dengue virus)
# Experiment: indirect ELISA on coated DN-IV-Ag#, antibody diluted 243 times
row,Binder,OD450 (reference 630 nm) [OD]
1,B1,0.2
2,B2,0.11
3,B3,0.103

# Target: Antigen DN-IV-Ag# (Fapon Biotech Inc.) (dengue virus)
# Experiment: indirect ELISA on coated DN-IV-Ag#, antibody diluted 9 times
row,Binder,OD450 (reference 630 nm) [OD]
1,B1,0.781
2,B2,1.05
3,B22,0.062
4,B3,1.07
